Results on 4 substances are retold here after PMC8432352.

Holding throughout (assay): SDS-PAGE without heating
Assay [1] has as its target Tail spike protein 2 (TSP2) of Salmonella phage S117 (Salmonella phage S117).
The target in assay [2] is Tail spike protein 1 (TSP1) of Salmonella phage S117 (Salmonella phage S117).
Assay [3] addresses Tail spike protein 4 (TSP4) of Salmonella phage S117 (Salmonella phage S117).
The target of assay [4] is Tail spike protein 3 (TSP3) of Salmonella phage S117 (Salmonella phage S117).

Substance “Tail spike protein 2 (TSP2) of Salmonella phage S117 (natural protein)” returned a stoichiometry N in assay [1] of 3.
In turn, “Tail spike protein 1 (TSP1) of Salmonella phage S117 (natural protein)” showed a stoichiometry N in assay [2] of 3.
“Tail spike protein 4 (TSP4) of Salmonella phage S117 (natural protein)” displayed a stoichiometry N in assay [3] of 3.
“Tail spike protein 3 (TSP3) of Salmonella phage S117 (natural protein)” returned a stoichiometry N in assay [4] of 3.
